Like-named read-outs stand apart in the source and are kept apart here.
Tests used:
[1] = target: T1, SARS-CoV-2 S1 (Acro) (SARS-CoV-2, UniProt P0DTC2 16-685); assay: Carterra SPR
T1 construct: also called Acro S1

[2] = target: SARS-CoV-2 S1 monomer (SARS-CoV-2, UniProt P0DTC2 16-685); assay: binding kinetics, Carterra SPR
[3] = target: T1, SARS-CoV-2 S1 (Acro); assay: Carterra SPR; remark: listed apart in the source

Row | Binder | Kd [1] | Kd [3] | further results
1 | 7-14 (VHH) VHH: EVQLVESGGGLVQPGGSLRLSCAASGSTFSINAMGWFRQAPGKEREFVAGISRGGTTNYADSVKGRFTISADNSKNTAYLQMNSLKPEDTAVYYCAADGVPEYSDYASGPVWGQGTLVTVSS | 0.0208 µM | 0.0208 µM | Kd [2]: 0.00957 µM; koff [2]: 0.000404 s⁻¹; kon [2]: 42200 M⁻¹ s⁻¹
2 | 7-32 (VHH) VHH: EVQLVESGGGLVQPGGSLRLSCAASGSTFSVNAMGWFRQAPGKEREFVAGVTRGGYTNYADSVKGRFTISADNSKNTAYLQMNSLKPEDTAVYYCAADGVPEYSDYASGPVWGQGTLVTVSS | – | 0.0485 µM | –
3 | 7-26 (VHH) VHH: EVQLVESGGGLVQPGGSLRLSCAASGSTFSINAMGWFRQAPGKEREFVAGITSSGGYTNYADSVKGRFTISADNSKNTAYLQMNSLKPEDTAVYYCAADGVPEYSDYASGPVWGQGTLVTVSS | 0.0248 µM | 0.0248 µM | Kd [2]: 0.00363 µM
4 | 3-31 (VHH, also called 3-31_ExpiCHO) VHH: EVQLVESGGGLVQPGGSLRLSCAASGSTFSINAMGWFRQAPGKEREFVAGITSSGGYTNYADSVKGRFTISADNSKNTAYLQMNSLKPEDTAVYYCAADGVPEYSDYASGPVWGQGTLVTVSS | 0.021 µM | 0.021 µM | Kd [2]: 0.00591 µM
5 | 7-8 (VHH) VHH: EVQLVESGGGLVQPGGSLRLSCAASGSTFTINAMGWFRQAPGKEREFVSGISHNGGTTNYADSVKGRFTISADNSKNTAYLQMNSLKPEDTAVYYCAADGVPEYSDYASGPVWGQGTLVTVSS | – | 0.0528 µM | –
6 | 7-37 (VHH) VHH: EVQLVESGGGLVQPGGSLRLSCAASGSTLSINAMGWFRQAPGKEREFVAGITRSGSVTNYADSVKGRFTISADNSKNTAYLQMNSLKPEDTAVYYCAADGVPEYSDYASGPVWGQGTLVTVSS | 0.0216 µM | 0.0216 µM | Kd [2]: 0.0171 µM; koff [2]: 0.000528 s⁻¹; kon [2]: 30800 M⁻¹ s⁻¹
7 | 3-24 (VHH, not shown: a dimerising Fc or GST) VHH: EVQLVESGGGLVQPGGSLRLSCAASGINFSRYGMGWFRQAPGKEREFVASITYLGRTNYADSVKGRFTISADNSKNTAYLQMNSLKPEDTAVYYCALRVRPYGQYDWGQGTLVTVSS | – | – | binding result [3]: no binding
8 | 3-17 (VHH, not shown: a dimerising Fc or GST) VHH: EVQLVESGGGLVQPGGSLRLSCAASGRTSSSAVMGWFRQAPGKEREFVAAINRGGSTIYVDSVKGRFTISADNSKNTAYLQMNSLKPEDTAVYYCATGPYRSYFARSYLWGQGTLVTVSS | – | 0.141 µM | –
9 | 7-21 (VHH) VHH: EVQLVESGGGLVQPGGSLRLSCAASGRTISRYTMGWFRQAPGKEREFVASITSGGSTAYADSVKGRFTISADNSKNTAYLQMNSLKPEDTAVYYCAKEDVGKPFDWGQGTLVTVSS | – | 0.0271 µM | –
10 | 7-41 (VHH) VHH: EVQLVESGGGLVQPGGSLRLSCAASGRTFSTYVMGWFRQAPGKEREFVASISSRGITHYADSVKGRFTISADNSKNTAYLQMNSLKPEDTAVYYCAKEDVGKPFDWGQGTLVTVSS | – | 0.0481 µM | –
11 | 7-45 (VHH) VHH: EVQLVESGGGLVQPGGSLRLSCAASGRTLSRYTMGWFRQAPGKEREFVASITSGGSTNYADSVKGRFTISADNSKNTAYLQMNSLKPEDTAVYYCAKEDVGKPFDWGQGTLVTVSS | – | 0.0363 µM | –
12 | 7-22 (VHH, not shown: a dimerising Fc or GST) VHH: EVQLVESGGGLVQPGGSLRLSCAASGRTITRYTMGWFRQAPGKEREFVASITSGGSTAYADSVKGRFTISADNSKNTAYLQMNSLKPEDTAVYYCAKQDVGKPFDWGQGTLVTVSS | – | 0.0409 µM | –
13 | 7-40 (VHH) VHH: EVQLVESGGGLVQPGGSLRLSCAASGRTFRRYTMGWFRQAPGKEREFVASITKFGSTNYADSVKGRFTISADNSKNTAYLQMNSLKPEDTAVYYCAKEDVGKPFDWGQGTLVTVSS | – | 85.6 µM | –
14 | 7-31 (VHH, not shown: a dimerising Fc or GST) VHH: EVQLVESGGGLVQPGGSLRLSCAASGFTFSNYSMGWFRQAPGKEREFVAAIHWNGDSTAYADSVKGRFTISADNSKNTAYLQMNSLKPEDTAVYYCAAQTEDSAQYIWGQGTLVTVSS | – | 0.228 µM | –
15 | 6A-3 (VHH) VHH: EVQLVESGGGLVQPGGSLRLSCAASGFTFSPSWMGWFRQAPGKEREFVATINEYGGRNYADSVKGRFTISADNSKNTAYLQMNSLKPEDTAVYYCARVDRDFDYWGQGTLVTVSS | 0.0315 µM | – | –
16 | 8-3 (VHH, not shown: a dimerising Fc or GST) VHH: EVQLVESGGGLVQPGGSLRLSCAASGTTLDYYAMGWFRQAPGKEREFVAAISWSGGSTAYADSVKGRFTISADNSKNTAYLQMNSLKPEDTAVYYCAREDYYDSSGYSWGQGTLVTVSS | – | 18.4 µM | –
17 | 7-24 (VHH, not shown: a dimerising Fc or GST) VHH: EVQLVESGGGLVQPGGSLRLSCAASGFTFSRHAMNWFRQAPGKEREFVSTITGSGGSTNYADSVKGRFTISADNSKNTAYLQMNSLKPEDTAVYYCAREVGLYYYGSGSSSRRLLGRIDYYFDYWGQGTLVTVSS | – | 4260 µM | –
18 | 7-09 (VHH, also called 7-9) VHH: EVQLVESGGGLVQPGGSLRLSCAASGGTFSSIGMGWFRQAPGKEREFVAAISWDGGATAYADSVKGRFTISADNSKNTAYLQMNSLKPEDTAVYYCAKEDVGKPFDWGQGTLVTVSS | 0.0241 µM | 0.0241 µM | –
19 | 5A-1 (VHH) VHH: EVQLVESGGGLVQPGGSLRLSCAASGGTFSSIGMGWFRQAPGKEREFVAAISWDGGATAYADSVKGRFTISADNSKNTAYLQMNSLKPEDTAVYYCAKEDVGKPFDWGQGTLVTVSS | 0.0066 µM | – | –
20 | 6A-63 (VHH) VHH: EVQLVESGGGLVQPGGSLRLSCAASGQTFNMGWFRQAPGKEREFVAAIGSGGSTSYADSVKGRFTISADNSKNTAYLQMNSLKPEDTAVYYCWRLGNDYFDYWGQGTLVTVSS | 0.0464 µM | – | –
21 | 7-29 (VHH, not shown: a dimerising Fc or GST) VHH: EVQLVESGGGLVQPGGSLRLSCAASGRTHSIYPMGWFRQAPGKEREFVASITSYGDTNYADSVKGRFTISADNSKNTAYLQMNSLKPEDTAVYYCAARRWIPPGPIWGQGTLVTVSS | – | 0.0312 µM | –
22 | 8-06 (VHH, not shown: a dimerising Fc or GST, also called 8-6) VHH: EVQLVESGGGLVQPGGSLRLSCAASGFTFDYYAMGWFRQAPGKEREFVSAIDSEGRTSYADSVKGRFTISADNSKNTAYLQMNSLKPEDTAVYYCARWGPFDIWGQGTLVTVSS | – | 0.0377 µM | –
23 | 8-10 (VHH, not shown: a dimerising Fc or GST) VHH: EVQLVESGGGLVQPGGSLRLSCAASGFIGNYHAMGWFRQAPGKEREFVAAVTWSGGTTNYADSVKGRFTISADNSKNTAYLQMNSLKPEDTAVYYCAREGYYYDSSGYPYYFDYWGQGTLVTVSS | – | 658 µM | –
24 | 7-6 (VHH, not shown: a dimerising Fc or GST) VHH: EVQLVESGGGLVQPGGSLRLSCAASGRIFYPMGWFRQAPGKEREFVAAVRWSSTGIYYTQYADSVKGRFTISADNSKNTAYLQMNSLKPEDTAVYYCAAALSEVWRGSENLREGYDWGQGTLVTVSS | – | 0.0424 µM | –
25 | 7-30 (VHH, not shown: a dimerising Fc or GST) VHH: EVQLVESGGGLVQPGGSLRLSCAASGRTFSMHAMGWFRQAPGKEREFVASISSQGRTNYADSVKGRFTISADNSKNTAYLQMNSLKPEDTAVYYCAAEVRNGSDYLPIDWGQGTLVTVSS | 0.0487 µM | 0.0487 µM | –
26 | 7-17 (VHH, not shown: a dimerising Fc or GST) VHH: EVQLVESGGGLVQPGGSLRLSCAASGFSLDYYGMGWFRQAPGKEREFVAAITSGGTPHYADSVKGRFTISADNSKNTAYLQMNSLKPEDTAVYYCASAYNPGIGYDWGQGTLVTVSS | – | 0.0604 µM | –
27 | 3-28 (VHH, not shown: a dimerising Fc or GST) VHH: EVQLVESGGGLVQPGGSLRLSCAASGFTFRRYDMGWFRQAPGKEREFVSAISGGLAYYADSVKGRFTISADNSKNTAYLQMNSLKPEDTAVYYCAVDLSGDAVYDWGQGTLVTVSS | 0.0522 µM | 0.0522 µM | –

Reference: patent US20230265217A1 (TWIST BIOSCIENCE, published 2023)
